Measured values reported in US20200254116A1.
Non-standard residues stand in square brackets, D forms with d. No end group written: not given here. *: point of attachment. Phe(4-I) = N[C@@H](Cc1ccc(I)cc1)C(=O)O; Fmoc = O=C(OCC1c2ccccc2-c2ccccc21)*

Substrate: FBS (fetal bovine serum) proteins
Test: FBS protein binding assay: 25 uM agent in 100% FBS, Amicon 10 K cutoff ultrafiltration, fluorescence of fractions

percent bound [%]	Binder
52	TSPLNIHNGQK(IRDye800)L [HN1-IR800]
70	Fmoc-[Phe(4-I)]LPNSNHIK(IRDye800)QGL [4Iphf-HN18-IR800]
